Test results reported in IntAct's records for PubMed 19258017.

B1: Cellulose synthase A catalytic subunit 7 [UDP-forming] (Arabidopsis thaliana (Mouse-ear cress)), Q9SWW6 (parent)
chain: MEASAGLVAGSHNRNELVVIHNHEEPKPLKNLDGQFCEICGDQIGLTVEGDLFVACNECGFPACRPCYEYERREGTQNCPQCKTRYKRLRGSPRVEGDEDEEDIDDIEYEFNIEHEQDKHKHSAEAMLYGKMSYGRGPEDDENGRFPPVIAGGHSGEFPVGGGYGNGEHGLHKRVHPYPSSEAGSEGGWRERMDDWKLQHGNLGPEPDDDPEMGLIDEARQPLSRKVPIASSKINPYRMVIVARLVILAVFLRYRLLNPVHDALGLWLTSVICEIWFAVSWILDQFPKWFPIERETYLDRLSLRYEREGEPNMLAPVDVFVSTVDPLKEPPLVTSNTVLSILAMDYPVEKISCYVSDDGASMLTFESLSETAEFARKWVPFCKKFSIEPRAPEMYFTLKVDYLQDKVHPTFVKERRAMKREYEEFKVRINAQVAKASKVPLEGWIMQDGTPWPGNNTKDHPGMIQVFLGHSGGFDVEGHELPRLVYVSREKRPGFQHHKKAGAMNALVRVAGVLTNAPFMLNLDCDHYVNNSKAVREAMCFLMDPQIGKKVCYVQFPQRFDGIDTNDRYANRNTVFFDINMKGLDGIQGPVYVGTGCVFKRQALYGYEPPKGPKRPKMISCGCCPCFGRRRKNKKFSKNDMNGDVAALGGAEGDKEHLMSEMNFEKTFGQSSIFVTSTLMEEGGVPPSSSPAVLLKEAIHVISCGYEDKTEWGTELGWIYGSITEDILTGFKMHCRGWRSIYCMPKRPAFKGSAPINLSDRLNQVLRWALGSVEIFFSRHSPLWYGYKGGKLKWLERFAYANTTIYPFTSIPLLAYCILPAICLLTDKFIMPPISTFASLFFISLFMSIIVTGILELRWSGVSIEEWWRNEQFWVIGGISAHLFAVVQGLLKILAGIDTNFTVTSKATDDDDFGELYAFKWTTLLIPPTTVLIINIVGVVAGISDAINNGYQSWGPLFGKLFFSFWVIVHLYPFLKGLMGRQNRTPTIVVIWSVLLASIFSLLWVRIDPFVLKTKGPDTSKCGINC
partner: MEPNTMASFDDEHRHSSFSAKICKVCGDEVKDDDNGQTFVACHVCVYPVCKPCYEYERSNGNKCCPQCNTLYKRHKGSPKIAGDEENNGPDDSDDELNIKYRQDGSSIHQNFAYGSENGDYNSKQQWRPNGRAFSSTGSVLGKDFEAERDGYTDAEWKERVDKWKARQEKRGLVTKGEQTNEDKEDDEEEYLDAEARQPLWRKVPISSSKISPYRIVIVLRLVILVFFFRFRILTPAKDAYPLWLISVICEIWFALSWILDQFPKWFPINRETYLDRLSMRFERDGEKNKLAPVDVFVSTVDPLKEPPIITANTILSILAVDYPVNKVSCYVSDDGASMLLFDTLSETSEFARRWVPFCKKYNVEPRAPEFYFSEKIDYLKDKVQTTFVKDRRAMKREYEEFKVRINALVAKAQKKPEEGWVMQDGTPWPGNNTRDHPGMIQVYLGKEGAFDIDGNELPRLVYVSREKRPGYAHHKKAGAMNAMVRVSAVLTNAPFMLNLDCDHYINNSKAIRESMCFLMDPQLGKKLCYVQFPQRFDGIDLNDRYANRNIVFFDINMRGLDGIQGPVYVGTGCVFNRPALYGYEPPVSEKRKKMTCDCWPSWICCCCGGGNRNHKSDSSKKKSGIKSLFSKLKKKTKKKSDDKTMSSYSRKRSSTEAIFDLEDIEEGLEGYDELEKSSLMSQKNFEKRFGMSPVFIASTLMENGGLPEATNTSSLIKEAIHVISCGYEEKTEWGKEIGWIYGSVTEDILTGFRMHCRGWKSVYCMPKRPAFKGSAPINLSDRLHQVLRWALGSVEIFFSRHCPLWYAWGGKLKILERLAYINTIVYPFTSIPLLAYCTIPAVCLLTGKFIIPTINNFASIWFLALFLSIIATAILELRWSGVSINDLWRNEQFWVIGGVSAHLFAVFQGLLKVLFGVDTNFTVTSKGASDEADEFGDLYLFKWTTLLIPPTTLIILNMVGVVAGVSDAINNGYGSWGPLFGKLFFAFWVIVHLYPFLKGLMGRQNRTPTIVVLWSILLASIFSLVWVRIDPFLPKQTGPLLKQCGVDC
B2: Cellulose synthase A catalytic subunit 7 [UDP-forming] (Arabidopsis thaliana (Mouse-ear cress)), Q9SWW6 (parent)
chain: B1 chain
partner: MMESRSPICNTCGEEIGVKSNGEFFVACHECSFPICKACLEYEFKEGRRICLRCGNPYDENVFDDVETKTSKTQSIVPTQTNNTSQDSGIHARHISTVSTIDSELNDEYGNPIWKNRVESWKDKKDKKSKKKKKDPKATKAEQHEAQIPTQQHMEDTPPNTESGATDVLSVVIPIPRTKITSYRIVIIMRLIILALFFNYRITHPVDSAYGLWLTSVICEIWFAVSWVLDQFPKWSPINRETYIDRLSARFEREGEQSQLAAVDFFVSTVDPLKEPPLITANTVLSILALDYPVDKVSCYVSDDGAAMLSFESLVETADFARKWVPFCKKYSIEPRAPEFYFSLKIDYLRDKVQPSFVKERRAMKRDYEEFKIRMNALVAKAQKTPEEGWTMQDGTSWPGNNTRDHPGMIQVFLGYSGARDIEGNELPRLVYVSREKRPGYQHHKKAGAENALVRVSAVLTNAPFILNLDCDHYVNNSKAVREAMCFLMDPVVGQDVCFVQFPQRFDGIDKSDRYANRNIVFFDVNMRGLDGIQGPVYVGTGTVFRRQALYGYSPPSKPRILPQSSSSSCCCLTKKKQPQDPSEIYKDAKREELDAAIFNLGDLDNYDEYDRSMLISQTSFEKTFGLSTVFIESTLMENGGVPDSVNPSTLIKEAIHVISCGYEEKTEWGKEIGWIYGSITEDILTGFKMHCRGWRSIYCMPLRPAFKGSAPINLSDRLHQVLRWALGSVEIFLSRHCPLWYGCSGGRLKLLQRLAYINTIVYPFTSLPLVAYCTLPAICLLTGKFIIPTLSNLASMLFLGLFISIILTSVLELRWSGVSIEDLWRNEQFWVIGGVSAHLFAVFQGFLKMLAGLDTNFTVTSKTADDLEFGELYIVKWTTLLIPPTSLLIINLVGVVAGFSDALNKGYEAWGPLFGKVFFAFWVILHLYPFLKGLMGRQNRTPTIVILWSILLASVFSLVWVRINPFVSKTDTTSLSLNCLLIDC

Variants of: B1
Conditions: with cesa4_arath CESA4, Q84JA6

Row | Variant | effect of a mutation on the interaction
1 | C79A | decreasing interaction

Variants of: B1
Conditions: with cesa4_arath CESA4, Q84JA6
Remark: another data set of the same source

Row | Variant | effect of a mutation on the interaction
2 | C64A | decreasing interaction

Variants of: B1
Conditions: with cesa4_arath CESA4, Q84JA6
Remark: another data set of the same source

Row | Variant | effect of a mutation on the interaction
3 | C37A | decreasing interaction

Variants of: B2
Conditions: with cesa8_arath CESA8, Q8LPK5

Row | Variant | effect of a mutation on the interaction
4 | C64A | decreasing interaction

Variants of: B2
Conditions: with cesa8_arath CESA8, Q8LPK5
Remark: another data set of the same source

Row | Variant | effect of a mutation on the interaction
5 | C37A | decreasing interaction

Variants of: B2
Conditions: with cesa8_arath CESA8, Q8LPK5
Remark: another data set of the same source

Row | Variant | effect of a mutation on the interaction
6 | C79A | decreasing interaction

Variants of: B2
Conditions: with cesa8_arath CESA8, Q8LPK5
Remark: another data set of the same source

Row | Variant | effect of a mutation on the interaction
7 | C56A | decreasing interaction
